Consider three molecules from paper PMC7611231, “Allosteric Activation of the ATPase Activity of the Escherichia coli RhlB RNA Helicase*” (The Journal of biological chemistry, 2007).

To fix the notation:
B1: Escherichia coli DEAD box RNA helicase RhlB, wild type (enzyme, E. coli, UniProt P0A8J8 1-421, looked up)
chain: MSKTHLTEQKFSDFALHPKVVEALEKKGFHNCTPIQALALPLTLAGRDVAGQAQTGTGKTMAFLTSTFHYLLSHPAIADRKVNQPRALIMAPTRELAVQIHADAEPLAEATGLKLGLAYGGDGYDKQLKVLESGVDILIGTTGRLIDYAKQNHINLGAIQVVVLDEADRMYDLGFIKDIRWLFRRMPPANQRLNMLFSATLSYRVRELAFEQMNNAEYIEVEPEQKTGHRIKEELFYPSNEEKMRLLQTLIEEEWPDRAIIFANTKHRCEEIWGHLAADGHRVGLLTGDVAQKKRLRILDEFTRGDLDILVATDVAARGLHIPAVTHVFNYDLPDDCEDYVHRIGRTGRAGASGHSISLACEEYALNLPAIETYIGHSIPVSKYNPDALMTDLPKPLRLTRPRTGNGPRRTGAPRNRRRSG
notes: The same untagged protein from two vectors (pET11a alone; second cloning site of pRSF-Duet-1, NdeI/XhoI, in pRneRhlB); also called WT RhlB; Helicase B; source: E. coli BL21(DE3), pET11a, purified (published procedure plus S200 size exclusion)
B2: N-terminal His6-tagged RNase E residues 696-762 (domain or fragment, E. coli, UniProt P21513 696-762, looked up)
chain: ALNVEEQSVQETEQEERVRPVQPRRKQRQLNQKVRYEQSVAEEAVVAPVVEETVAAEPIVQEAPAPR
notes: Cloned BamHI/SalI in the first cloning site of pRSF-Duet-1; also called RNase E peptide; source: E. coli, pRSF-Duet-1, purified (Ni-NTA, S200); also co-expressed with RhlB from pRneRhlB in E. coli BL21(DE3), co-purified (Ni-NTA, SP, S200); not shown: His6, N-terminal, kept

Assay [1] has as its target RNase E 628-843 (Escherichia coli) (UniProt P21513). Particulars: cited from earlier work.
The target of assay [2] is B2. The experiment in a line: SEC; co-expressed in E. coli from a di-cistronic vector; His6-RNase E-(696-762) held on Ni-NTA, then SP column and S200 size exclusion; fractions on SDS-PAGE. Particulars: partners not purified. (In general: Size exclusion chromatography separates by hydrodynamic size, large species first.)
The target of assay [3] is B1. As to the kind of experiment: ITC; 300 uM RNase E-(696-762) in the syringe titrated into 20 uM WT RhlB or variant in the cell; 25 C; 50 mM potassium phosphate pH 7.4, 100 mM NaCl, 1 mM dithiothreitol (methods; the table's caption says 100 mM KPi, 50 mM NaCl); 1:1 model; Ka are lower limits. Particulars: both partners purified. (ITC needs no label: the signal is the heat of the interaction.)

The target in assay [4] is RhlB H320D (E. coli). The assay is described as above.
In assay [5] the target is RhlB S381A (E. coli). The assay is described as above.
Assay [6] concerns the target B1. As to the kind of experiment: native MS; nanoflow ESI under non-dissociating conditions; co-expressed complex after size exclusion chromatography, 5-20 uM, 250 mM ammonium acetate; MS/MS of the +15 ion. To be noted: both partners purified.
Assay [7] has as its target RhlB S381A (E. coli).

Sequence of RNase E 628-843 (Escherichia coli) (P21513 628-843): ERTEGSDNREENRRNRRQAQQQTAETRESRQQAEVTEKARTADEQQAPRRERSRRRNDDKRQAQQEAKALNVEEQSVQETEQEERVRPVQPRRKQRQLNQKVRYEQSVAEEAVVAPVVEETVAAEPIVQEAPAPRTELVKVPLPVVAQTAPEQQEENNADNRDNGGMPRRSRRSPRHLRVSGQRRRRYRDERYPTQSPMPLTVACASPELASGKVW

Regarding RhlB (from UniProt P0A8J8), the Kd (in general, the free concentration of one partner at which half of the binding sites on the other are occupied at equilibrium, for simple one-to-one binding) in assay [1] is 50 nM.

As to B1, the stoichiometry N – broadly, a count of units in the complex or per binding partner – in assay [2] was around 1.

B2: the Ka in assay [3] is at least 1.1e+08 M⁻¹; in assay [4], above 7e+07 M⁻¹; in assay [5] it was above 8e+07 M⁻¹. The dH in assay [3] is -27.6 kcal/mol; in assay [4], -29 kcal/mol; in assay [5], -23.3 kcal/mol. For the same molecule, the “stoichiometry N” value in assay [3] amounted to 0.92; in assay [4] it was 0.83; in assay [5] it was 1.2; in assay [6] it was 1. In assay [7], the ATPase activity of S381A RhlB with RNase E-(696-762) and bulk S. cerevisiae RNA (S381A RhlB alone: ≤0.5) (mol Pi/min/mol protein) is 9.4.
